Assay results reported in the supplement of paper PMC10567573.

B1: ADD1 (parent)
chain: GEGTGSPPKWQIGEQEFEALMRML

Variants of: B1
Test: protein stability index of a GFP-peptide fusion (GPS, HEK-293T) (PSI 1-6); higher = more stable
Details: c terminus: a fixed tail appended
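Also: lentivirally expressed fusions sorted by FACS into six bins by GFP to DsRed ratio, PSI derived from sequencing read proportions per bin multiplied by bin number.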

Variant | protein stability index
GEGTGSPPKWQIGEQEFEALMRMK [L24K] | 4.67
GEGTGSPPKWQIGEQEFEALARML [M21A] | 3.35
GEGTGSPPKWQIGEQEFEALTRML [M21T] | 3.13
GEGTGSPPKWQIGEQEFEALQRML [M21Q] | 3.83
GEGTGSPPKWQIGEQEFEALSRML [M21S] | 3.66
GEGTGSPPKWQIGEQEFEALGRML [M21G] | 3.87
GEGTGSPPKWQIGEQEFEALNRML [M21N] | 3.71
GNGTGSPPKWQIGEQEFEALMRML [E2N] | 2.77
GWGTGSPPKWQIGEQEFEALMRML [E2W] | 2.8
GPGTGSPPKWQIGEQEFEALMRML [E2P] | 3.06
GSGTGSPPKWQIGEQEFEALMRML [E2S] | 2.73
GEGTGKPPKWQIGEQEFEALMRML [S6K] | 2.12
GEGTGCPPKWQIGEQEFEALMRML [S6C] | 2.75
GEGTGLPPKWQIGEQEFEALMRML [S6L] | 3.03
GEGTGQPPKWQIGEQEFEALMRML [S6Q] | 2.85
GEGTGNPPKWQIGEQEFEALMRML [S6N] | 2.8
GEGTGMPPKWQIGEQEFEALMRML [S6M] | 3.91
GEGTGVPPKWQIGEQEFEALMRML [S6V] | 2.46
GEGTGTPPKWQIGEQEFEALMRML [S6T] | 2.68
GEGTGSPPWWQIGEQEFEALMRML [K9W] | 2.63
GEGTGSPPCWQIGEQEFEALMRML [K9C] | 2.28
GEGTGSPPPWQIGEQEFEALMRML [K9P] | 3.42
GEGTGSPPGWQIGEQEFEALMRML [K9G] | 3.14
GEGTGSPPEWQIGEQEFEALMRML [K9E] | 3.82

Variant | protein stability index
GEGTGSPPYWQIGEQEFEALMRML [K9Y] | 3.43
GEGTGSPPNWQIGEQEFEALMRML [K9N] | 3.53
GEGTGSPPKWQIGEQEFAALMRML [E18A] | 2.76
GEGTGSPPKWQIGEQEFGALMRML [E18G] | 2.69
GEGTGSPPKWQIGEQEFVALMRML [E18V] | 2.3
GEGTGSPRKWQIGEQEFEALMRML [P8R] | 3.14
GEGTGSPLKWQIGEQEFEALMRML [P8L] | 2.6
GEGTGSPEKWQIGEQEFEALMRML [P8E] | 3.66
GEGTGSPVKWQIGEQEFEALMRML [P8V] | 2.2
GEGTGSPAKWQIGEQEFEALMRML [P8A] | 3.07
GEGTGSPCKWQIGEQEFEALMRML [P8C] | 2.27
GEGTGSPPKWQIEEQEFEALMRML [G13E] | 4.05
GEGTGSPPKWQISEQEFEALMRML [G13S] | 3.22
GEGTGSPPKWQICEQEFEALMRML [G13C] | 3.22
GEGTGSPPKWQIYEQEFEALMRML [G13Y] | 2.66
EEGTGSPPKWQIGEQEFEALMRML [G1E] | 3.57
SEGTGSPPKWQIGEQEFEALMRML [G1S] | 2.99
PEGTGSPPKWQIGEQEFEALMRML [G1P] | 3.26
GEGTGSPPKWQIGEQEFEALMRYL [M23Y] | 2.96
GEGTGSPPKWQIGEQEFEALMRTL [M23T] | 3.38
GEGTGSPPKWQIGEQEFEALMRRL [M23R] | 4.26
GEGTGSPPKWQIGEQEFEALMRKL [M23K] | 4.49
GEGTGSPPKWQIGEQEFEALMRPL [M23P] | 4.76
GEGTGSPPKWQIGEQEFEALMRHL [M23H] | 3.1

Variant | protein stability index
GEGTGSPPKWQIGEQEFEALMRAL [M23A] | 3.58
GEGTGSPPKWQIGEIEFEALMRML [Q15I] | 2.49
GEGTGSPPKWQIGEYEFEALMRML [Q15Y] | 2.25
GEGTGSPPKWQIGESEFEALMRML [Q15S] | 3.13
GEGTGSCPKWQIGEQEFEALMRML [P7C] | 2.59
GEGTGSNPKWQIGEQEFEALMRML [P7N] | 2.88
GEGTGSRPKWQIGEQEFEALMRML [P7R] | 2.63
GEGTGSHPKWQIGEQEFEALMRML [P7H] | 2.89
GEGTGSLPKWQIGEQEFEALMRML [P7L] | 2.33
GEGTGSPPKWQHGEQEFEALMRML [I12H] | 3.75
GEGTGSPPKWQFGEQEFEALMRML [I12F] | 3.09
GEGTGSPPKWQKGEQEFEALMRML [I12K] | 3.03
GEGTGSPPKWQRGEQEFEALMRML [I12R] | 3.12
GEGTGSPPKWQDGEQEFEALMRML [I12D] | 4.45
GEGTGSPPKWQIGEQEFEAIMRML [L20I] | 2.46
GEGTGSPPKWQIGEQEFEASMRML [L20S] | 5.12
GEGTGSPPKWQIGEQEFEACMRML [L20C] | 4.05
GEGTGSPPKWQIGEQEFEADMRML [L20D] | 4.8
GEGTGSPPKWQIGEQEFEAVMRML [L20V] | 3.48
GEGTGSPPKWQIGEQEFEANMRML [L20N] | 4.89
GEGTGSPPKWQIGLQEFEALMRML [E14L] | 2.3
GEGTGSPPKWQIGIQEFEALMRML [E14I] | 3.39
GEGTGSPPKWQIGNQEFEALMRML [E14N] | 2.96
GEGTGSPPKWQIGQQEFEALMRML [E14Q] | 3.19

Variant | protein stability index
GEGTGSPPKWQIGDQEFEALMRML [E14D] | 3.17
GEGTGSPPKWQIGVQEFEALMRML [E14V] | 2.29
GEGTGSPPKWQIGGQEFEALMRML [E14G] | 2.92
GEGTGSPPKWQIGAQEFEALMRML [E14A] | 3.16
GEGTGSPPKWQIGEQIFEALMRML [E16I] | 1.31
GEGTGSPPKWQIGEQVFEALMRML [E16V] | 1.6
GEGTGSPPKWQIGEQTFEALMRML [E16T] | 2.4
GEGTGSPPKWQIGEQSFEALMRML [E16S] | 3.06
GEGTGSPPKAQIGEQEFEALMRML [W10A] | 3.71
GEGTGSPPKEQIGEQEFEALMRML [W10E] | 4.28
GEGTGSPPKRQIGEQEFEALMRML [W10R] | 4.22
GEGTGSPPKQQIGEQEFEALMRML [W10Q] | 3.5
GEGTGSPPKVQIGEQEFEALMRML [W10V] | 3.67
GEGTGSPPKIQIGEQEFEALMRML [W10I] | 2.86
GEGTGSPPKWMIGEQEFEALMRML [Q11M] | 3.54
GEGTGSPPKWKIGEQEFEALMRML [Q11K] | 4.08
GEGTGSPPKWSIGEQEFEALMRML [Q11S] | 3.42
GEGTGSPPKWRIGEQEFEALMRML [Q11R] | 3.46
GEGTGSPPKWHIGEQEFEALMRML [Q11H] | 3.23
GEGTGSPPKWLIGEQEFEALMRML [Q11L] | 2.98
GEGTGSPPKWTIGEQEFEALMRML [Q11T] | 3.51
GEWTGSPPKWQIGEQEFEALMRML [G3W] | 2.49
